# Square brackets hold non-standard residues; d marks the D form.
# B1: AP500m (peptide)
# peptide: Ac-RGN[dW]N[dE]S[dK]MNEYSGW[dM]L[dM]C[dT]MGR-NH2
# SMILES: CSCC[C@H](NC(=O)[C@@H](CCCCN)NC(=O)[C@H](CO)NC(=O)[C@@H](CCC(=O)O)NC(=O)[C@H](CC(N)=O)NC(=O)[C@@H](Cc1c[nH]c2ccccc12)NC(=O)[C@H](CC(N)=O)NC(=O)CNC(=O)[C@H](CCCNC(=N)N)NC(C)=O)C(=O)N[C@@H](CC(N)=O)C(=O)N[C@@H](CCC(=O)O)C(=O)N[C@@H](Cc1ccc(O)cc1)C(=O)N[C@@H](CO)C(=O)NCC(=O)N[C@@H](Cc1c[nH]c2ccccc12)C(=O)N[C@H](CCSC)C(=O)N[C@@H](CC(C)C)C(=O)N[C@H](CCSC)C(=O)N[C@@H](CS)C(=O)N[C@@H](C(=O)N[C@@H](CCSC)C(=O)NCC(=O)N[C@@H](CCCNC(=N)N)C(N)=O)[C@H](C)O
# B2: AP516d (peptide)
# peptide: Ac-[dR]G[dE]M[dN]Y[dF]W[dM][dN][dE][dY][dY]G[dW]T[dM]N[dC]K[dM]G[dR]-NH2
# modifications: also: disulfide-linked homodimer (Cys19 to Cys19 of other copy), disulfide at 19, other end not in the chain
# B3: AP516m (peptide)
# peptide: Ac-[dR]G[dE]M[dN]Y[dF]W[dM][dN][dE][dY][dY]G[dW]T[dM]N[dC]K[dM]G[dR]-NH2
# SMILES: CSCC[C@H](NC(=O)[C@@H](CCC(=O)O)NC(=O)CNC(=O)[C@@H](CCCNC(=N)N)NC(C)=O)C(=O)N[C@H](CC(N)=O)C(=O)N[C@@H](Cc1ccc(O)cc1)C(=O)N[C@H](Cc1ccccc1)C(=O)N[C@@H](Cc1c[nH]c2ccccc12)C(=O)N[C@H](CCSC)C(=O)N[C@H](CC(N)=O)C(=O)N[C@H](CCC(=O)O)C(=O)N[C@H](Cc1ccc(O)cc1)C(=O)N[C@H](Cc1ccc(O)cc1)C(=O)NCC(=O)N[C@H](Cc1c[nH]c2ccccc12)C(=O)N[C@H](C(=O)N[C@H](CCSC)C(=O)N[C@@H](CC(N)=O)C(=O)N[C@H](CS)C(=O)N[C@@H](CCCCN)C(=O)N[C@H](CCSC)C(=O)NCC(=O)N[C@H](CCCNC(=N)N)C(N)=O)[C@@H](C)O
# B4: AP520m (peptide)
# peptide: Ac-RGE[dM]N[dL]S[dW]MNEYSGW[dT]M[dN]C[dK]MGR-NH2
# SMILES: CSCC[C@H](NC(=O)[C@@H](CCCCN)NC(=O)[C@H](CS)NC(=O)[C@@H](CC(N)=O)NC(=O)[C@H](CCSC)NC(=O)[C@H](NC(=O)[C@H](Cc1c[nH]c2ccccc12)NC(=O)CNC(=O)[C@H](CO)NC(=O)[C@H](Cc1ccc(O)cc1)NC(=O)[C@H](CCC(=O)O)NC(=O)[C@H](CC(N)=O)NC(=O)[C@H](CCSC)NC(=O)[C@@H](Cc1c[nH]c2ccccc12)NC(=O)[C@H](CO)NC(=O)[C@@H](CC(C)C)NC(=O)[C@H](CC(N)=O)NC(=O)[C@@H](CCSC)NC(=O)[C@H](CCC(=O)O)NC(=O)CNC(=O)[C@H](CCCNC(=N)N)NC(C)=O)[C@H](C)O)C(=O)NCC(=O)N[C@@H](CCCNC(=N)N)C(N)=O
# B5: AP522d (peptide)
# peptide: Ac-RGE[dC]N[dL]S[dW]MNEYYGW[dT]M[dN]M[dK]MGR-NH2
# modifications: also: disulfide-linked homodimer (Cys4 to Cys4 of other copy), disulfide at 4, other end not in the chain
# B6: AP521m (peptide)
# peptide: Ac-RGE[dC]N[dL]S[dW]MNEYSGW[dT]M[dN]M[dK]MGR-NH2
# SMILES: CSCC[C@H](NC(=O)[C@@H](CCCCN)NC(=O)[C@H](CCSC)NC(=O)[C@@H](CC(N)=O)NC(=O)[C@H](CCSC)NC(=O)[C@H](NC(=O)[C@H](Cc1c[nH]c2ccccc12)NC(=O)CNC(=O)[C@H](CO)NC(=O)[C@H](Cc1ccc(O)cc1)NC(=O)[C@H](CCC(=O)O)NC(=O)[C@H](CC(N)=O)NC(=O)[C@H](CCSC)NC(=O)[C@@H](Cc1c[nH]c2ccccc12)NC(=O)[C@H](CO)NC(=O)[C@@H](CC(C)C)NC(=O)[C@H](CC(N)=O)NC(=O)[C@@H](CS)NC(=O)[C@H](CCC(=O)O)NC(=O)CNC(=O)[C@H](CCCNC(=N)N)NC(C)=O)[C@H](C)O)C(=O)NCC(=O)N[C@@H](CCCNC(=N)N)C(N)=O
# B7: AP521d (peptide)
# peptide: Ac-RGE[dC]N[dL]S[dW]MNEYSGW[dT]M[dN]M[dK]MGR-NH2
# modifications: also: disulfide-linked homodimer (Cys4 to Cys4 of other copy), disulfide at 4, other end not in the chain
# B8: AP522m (peptide)
# peptide: Ac-RGE[dC]N[dL]S[dW]MNEYYGW[dT]M[dN]M[dK]MGR-NH2
# SMILES: CSCC[C@H](NC(=O)[C@@H](CCCCN)NC(=O)[C@H](CCSC)NC(=O)[C@@H](CC(N)=O)NC(=O)[C@H](CCSC)NC(=O)[C@H](NC(=O)[C@H](Cc1c[nH]c2ccccc12)NC(=O)CNC(=O)[C@H](Cc1ccc(O)cc1)NC(=O)[C@H](Cc1ccc(O)cc1)NC(=O)[C@H](CCC(=O)O)NC(=O)[C@H](CC(N)=O)NC(=O)[C@H](CCSC)NC(=O)[C@@H](Cc1c[nH]c2ccccc12)NC(=O)[C@H](CO)NC(=O)[C@@H](CC(C)C)NC(=O)[C@H](CC(N)=O)NC(=O)[C@@H](CS)NC(=O)[C@H](CCC(=O)O)NC(=O)CNC(=O)[C@H](CCCNC(=N)N)NC(C)=O)[C@H](C)O)C(=O)NCC(=O)N[C@@H](CCCNC(=N)N)C(N)=O
# Target: Aβ42 (UniProt P05067 672-713)
# Sequence (P05067 672-713 limits assumed): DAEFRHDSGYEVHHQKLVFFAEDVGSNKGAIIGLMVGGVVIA
# Experiment: cell-based or functional assay
Binder,"% inhibition of fibril formation (ThT), AP:Aβ42 1:1 [%]","% inhibition of fibril formation (ThT), AP:Aβ42 1:10 [%]","% inhibition of fibril formation (ThT), AP:Aβ42 1:100 [%]"
B1,76.6,9,0
B2,100,98.2,51.3
B3,76.6,56.4,0
B4,47,33.1,0
B5,100,88.1,52.4
Ac-RGE[dM]N[dL]S[dW]MNEYSGW[dT]M[dN]C[dK]MGR-NH2 (also: disulfide-linked homodimer via Cys19) [AP520d],100,91.2,45.3
B6,74,34.6,0
B7,100,100,54.3
B8,45.7,12.6,0
